Source: IntAct's records for PubMed 20010840

B1: Signaling lymphocytic activation molecule (Homo sapiens), Q13291 (parent)
chain: MDPKGLLSLTFVLFLSLAFGASYGTGGRMMNCPKILRQLGSKVLLPLTYERINKSMNKSIHIVVTMAKSLENSVENKIVSLDPSEAGPPRYLGDRYKFYLENLTLGIRESRKEDEGWYLMTLEKNVSVQRFCLQLRLYEQVSTPEIKVLNKTQENGTCTLILGCTVEKGDHVAYSWSEKAGTHPLNPANSSHLLSLTLGPQHADNIYICTVSNPISNNSQTFSPWPGCRTDPSETKPWAVYAGLLGGVIMILIMVVILQLRRRGKTNHYQTTVEKKSLTIYAQVQKPGPLQKKLDSFPAQDPCTTIYVAATEPVPESVQETNSITVYASVTLPES

Variants of: B1
Conditions: with hema_mease H

Variant	effect of a mutation on the interaction
R90A	decreasing interaction
Y91A	decreasing interaction
P88G;P89G	decreasing interaction
